# Measurements reported in article PMC4110039.
# Columns and labels:
# [1] = target: HIV-1 JR2 F673L mutant Env (trimer of gp120-gp41 heterodimers) on pseudotyped virus (HIV-1 (isolate JR2))
# [2] = target: HIV-1 JR2 wild type Env (trimer of gp120-gp41 heterodimers) on pseudotyped virus (HIV-1 (isolate JR2))
substance,measurement,setting,value
C34 peptide,"IC50 of neutralization of pseudotyped virus (single cycle entry assay, TZM-bl cells); C34 acts on the NHR of gp41",[1],0.9 µg/mL
same,"IC50 of neutralization of pseudotyped virus (single cycle entry assay, TZM-bl cells); C34 acts on the NHR of gp41",[2],1.2 µg/mL
